Literature values in paper PMC3433420.
Like-named read-outs stand apart in the source and are kept apart here.

How the values were obtained:
Details in all cases: cited from earlier work
[1] = target: ITK (Homo sapiens) (UniProt Q08881)
[2] = target: NCK2 (Homo sapiens) (UniProt O43639)
[3] = target: PIK3R2-N (Homo sapiens) (UniProt O00459)
[4] = target: GRB7 (Homo sapiens) (UniProt Q14451)
[5] = target: PIK3R2-N (Homo sapiens) (UniProt O00459); remark: listed apart in the source
[6] = target: PTPN11-N (Homo sapiens) (UniProt Q06124)
[7] = target: VAV2 (Homo sapiens) (UniProt P52735)
[8] = target: SHB (Homo sapiens) (UniProt Q15464)
[9] = target: SLA (Homo sapiens) (UniProt Q13239)
[10] = target: TENC1 (Homo sapiens) (UniProt Q63HR2)
[11] = target: PIK3R3-N (Homo sapiens) (UniProt Q92569)
[12] = target: PLCG2-NC (Homo sapiens) (UniProt P16885)
[13] = target: PIK3R2-N (Homo sapiens) (UniProt O00459); remark: listed apart in the source
[14] = target: RASA1-N (Homo sapiens) (UniProt P20936)
[15] = target: NCK1 (Homo sapiens) (UniProt P16333)
[16] = target: SLA2 (Homo sapiens) (UniProt Q9H6Q3)
[17] = target: PIK3R3-C (Homo sapiens) (UniProt Q92569)
[18] = target: SLA (Homo sapiens) (UniProt Q13239); remark: listed apart in the source
[19] = target: FGR (Homo sapiens) (UniProt P09769)
[20] = target: VAV2 (Homo sapiens) (UniProt P52735); remark: listed apart in the source
[21] = target: TNS3 (Homo sapiens) (UniProt Q68CZ2)
[22] = target: GRB7 (Homo sapiens) (UniProt Q14451); remark: listed apart in the source
[23] = target: PIK3R3-NC (Homo sapiens) (UniProt Q92569)
[24] = target: SHC3 (Homo sapiens) (UniProt Q92529)
[25] = target: HSH2D (Homo sapiens) (UniProt Q96JZ2)
[26] = target: SRC (Homo sapiens) (UniProt P12931)
[27] = target: PTPN6-C (Homo sapiens) (UniProt P29350)
[28] = target: VAV2 (Homo sapiens) (UniProt P52735); remark: listed apart in the source
[29] = target: SOCS5 (Homo sapiens) (UniProt O75159)
[30] = target: ABL1 (Homo sapiens) (UniProt P00519)
[31] = target: RASA1-NC (Homo sapiens) (UniProt P20936)
Sequence of RASA1-NC (Homo sapiens) (P20936 176-446): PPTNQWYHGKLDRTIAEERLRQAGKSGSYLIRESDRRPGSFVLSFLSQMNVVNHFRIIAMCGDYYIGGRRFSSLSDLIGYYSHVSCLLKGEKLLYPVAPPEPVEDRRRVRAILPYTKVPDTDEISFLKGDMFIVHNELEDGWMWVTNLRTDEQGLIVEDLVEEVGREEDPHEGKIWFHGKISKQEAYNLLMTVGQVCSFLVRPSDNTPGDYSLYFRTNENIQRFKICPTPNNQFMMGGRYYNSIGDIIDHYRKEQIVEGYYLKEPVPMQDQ

Sequence of PIK3R2-N (Homo sapiens) (O00459 325-721): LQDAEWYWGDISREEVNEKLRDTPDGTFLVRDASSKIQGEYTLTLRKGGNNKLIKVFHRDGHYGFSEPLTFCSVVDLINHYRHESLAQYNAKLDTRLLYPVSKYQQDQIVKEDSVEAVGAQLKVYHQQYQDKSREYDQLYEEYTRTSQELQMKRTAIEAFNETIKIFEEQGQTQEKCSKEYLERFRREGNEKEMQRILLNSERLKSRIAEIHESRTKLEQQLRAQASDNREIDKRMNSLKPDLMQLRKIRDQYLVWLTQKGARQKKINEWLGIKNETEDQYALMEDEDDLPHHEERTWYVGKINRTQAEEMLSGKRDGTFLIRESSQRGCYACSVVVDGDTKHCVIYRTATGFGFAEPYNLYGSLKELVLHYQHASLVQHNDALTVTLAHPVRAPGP
Sequence of VAV2 (Homo sapiens) (P52735 668-772): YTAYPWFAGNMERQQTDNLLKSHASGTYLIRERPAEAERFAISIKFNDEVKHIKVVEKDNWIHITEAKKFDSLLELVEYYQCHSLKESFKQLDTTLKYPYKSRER
Sequence of GRB7 (Homo sapiens) (Q14451 426-532): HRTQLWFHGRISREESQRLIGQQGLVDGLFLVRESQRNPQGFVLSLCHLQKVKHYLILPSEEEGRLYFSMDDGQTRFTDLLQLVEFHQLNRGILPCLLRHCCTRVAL
Sequence of SLA (Homo sapiens) (Q13239 79-180): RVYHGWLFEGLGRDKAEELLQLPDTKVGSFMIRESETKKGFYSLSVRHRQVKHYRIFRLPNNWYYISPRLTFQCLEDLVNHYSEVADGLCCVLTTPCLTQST
Sequence of SHC3 (Homo sapiens) (Q92529 494-594): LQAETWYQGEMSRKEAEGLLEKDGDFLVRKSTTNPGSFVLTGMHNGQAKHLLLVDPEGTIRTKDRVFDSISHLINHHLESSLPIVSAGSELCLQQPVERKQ
Sequence of SHB (Homo sapiens) (Q15464 405-509): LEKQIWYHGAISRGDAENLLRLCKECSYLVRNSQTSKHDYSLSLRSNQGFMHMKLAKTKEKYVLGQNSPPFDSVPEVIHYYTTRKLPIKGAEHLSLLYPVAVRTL
Sequence of ITK (Homo sapiens) (Q08881 234-343): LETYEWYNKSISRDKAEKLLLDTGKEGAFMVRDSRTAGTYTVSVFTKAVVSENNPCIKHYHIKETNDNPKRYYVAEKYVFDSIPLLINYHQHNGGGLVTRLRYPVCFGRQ
Sequence of RASA1-N (Homo sapiens) (P20936 176-446): as the sequence (P20936 176-446) above
Sequence of HSH2D (Homo sapiens) (Q96JZ2 29-130): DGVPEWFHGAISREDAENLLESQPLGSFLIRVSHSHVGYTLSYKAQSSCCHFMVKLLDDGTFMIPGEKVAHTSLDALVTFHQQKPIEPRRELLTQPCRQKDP
Sequence of PTPN6-C (Homo sapiens) (P29350 1-218): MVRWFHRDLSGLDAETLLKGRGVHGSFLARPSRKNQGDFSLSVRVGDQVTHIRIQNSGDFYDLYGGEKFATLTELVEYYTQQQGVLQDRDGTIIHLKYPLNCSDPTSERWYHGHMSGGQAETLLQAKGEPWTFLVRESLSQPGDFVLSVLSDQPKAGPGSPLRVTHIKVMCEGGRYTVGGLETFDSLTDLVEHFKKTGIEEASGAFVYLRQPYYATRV
Sequence of TNS3 (Homo sapiens) (Q68CZ2 1167-1287): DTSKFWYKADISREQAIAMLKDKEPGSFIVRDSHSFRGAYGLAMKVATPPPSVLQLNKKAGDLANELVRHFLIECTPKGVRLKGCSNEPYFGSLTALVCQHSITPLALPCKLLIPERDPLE
Sequence of SOCS5 (Homo sapiens) (O75159 376-481): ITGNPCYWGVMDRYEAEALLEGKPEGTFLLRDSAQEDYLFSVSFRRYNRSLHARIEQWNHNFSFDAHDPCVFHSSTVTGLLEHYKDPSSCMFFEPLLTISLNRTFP
Sequence of ABL1 (Homo sapiens) (P00519 122-222): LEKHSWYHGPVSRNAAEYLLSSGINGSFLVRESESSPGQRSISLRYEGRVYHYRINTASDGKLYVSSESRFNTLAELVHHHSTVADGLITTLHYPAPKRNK
Sequence of TENC1 (Homo sapiens) (Q63HR2 1135-1252): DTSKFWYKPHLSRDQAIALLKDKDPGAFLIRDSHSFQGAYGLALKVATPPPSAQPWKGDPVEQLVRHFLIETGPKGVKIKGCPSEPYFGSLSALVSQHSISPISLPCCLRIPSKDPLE
Sequence of NCK2 (Homo sapiens) (O43639 280-380): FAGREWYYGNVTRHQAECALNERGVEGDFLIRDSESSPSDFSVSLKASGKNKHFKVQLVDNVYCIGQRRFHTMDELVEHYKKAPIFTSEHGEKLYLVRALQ
Sequence of SLA2 (Homo sapiens) (Q9H6Q3 89-196): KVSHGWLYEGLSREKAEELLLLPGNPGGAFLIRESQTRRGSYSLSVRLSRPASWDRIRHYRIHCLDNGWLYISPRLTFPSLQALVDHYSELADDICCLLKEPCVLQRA
Sequence of PLCG2-NC (Homo sapiens) (P16885 527-740): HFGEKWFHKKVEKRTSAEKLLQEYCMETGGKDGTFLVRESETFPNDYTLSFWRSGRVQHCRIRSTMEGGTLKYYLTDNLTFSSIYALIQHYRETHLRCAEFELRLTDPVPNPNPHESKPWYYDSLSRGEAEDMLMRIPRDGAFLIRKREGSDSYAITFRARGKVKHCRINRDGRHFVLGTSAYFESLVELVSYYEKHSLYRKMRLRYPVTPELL

Substance: …pYLVPQQGF
- apparent Kd (screen) [1]: 2 µM
- apparent Kd (screen) [2]: 2 µM
- apparent Kd (screen) [3]: 1.95 µM
- apparent Kd (screen) [4]: 2 µM

Substance: …pYLIPQQGFd
- apparent Kd (screen) [5]: 0.424 µM
- apparent Kd (screen) [6]: 0.379 µM
- apparent Kd (screen) [7]: 0.085 µM
- apparent Kd (screen) [8]: 1.99 µM
- apparent Kd (screen) [9]: 2 µM
- apparent Kd (screen) [10]: 2 µM
- apparent Kd (screen) [11]: 0.722 µM
- apparent Kd (screen) [12]: 2 µM
- apparent Kd (screen) [13]: 0.425 µM
- apparent Kd (screen) [14]: 0.488 µM
- apparent Kd (screen) [15]: 1 µM

Substance: …pYEEMRAFQ
- apparent Kd (screen) [16]: 2 µM
- apparent Kd (screen) [17]: 0.012 µM
- apparent Kd (screen) [18]: 2 µM
- apparent Kd (screen) [19]: 1.16 µM
- apparent Kd (screen) [20]: 2 µM
- apparent Kd (screen) [21]: 0.639 µM
- apparent Kd (screen) [22]: 1.52 µM

Substance: …pYWDQDPPE
- apparent Kd (screen) [23]: 0.783 µM
- apparent Kd (screen) [24]: 1.71 µM
- apparent Kd (screen) [25]: 2 µM
- apparent Kd (screen) [26]: 2 µM
- apparent Kd (screen) [27]: 2 µM
- apparent Kd (screen) [28]: 2 µM
- apparent Kd (screen) [29]: 2 µM
- apparent Kd (screen) [30]: 1.84 µM
- apparent Kd (screen) [31]: 0.224 µM
